Results published in patent publication US20030235860A1, “Interactions between AR, ER, TR2, and TR4” (priority 1999, published 2003).

T1: TR4 (Homo sapiens, UniProt P49116)
T1 construct: full-length AR and TR4 in eukaryotic expression vectors (pSG5AR and pCMXTR4) were co-transfected; expressed in transfected cells; host or cells: H1299, HepG2
T1 sequence (P49116 1-615 isoform P49116-2 N175S/W419R/A428G/K503N/L504W/A613V): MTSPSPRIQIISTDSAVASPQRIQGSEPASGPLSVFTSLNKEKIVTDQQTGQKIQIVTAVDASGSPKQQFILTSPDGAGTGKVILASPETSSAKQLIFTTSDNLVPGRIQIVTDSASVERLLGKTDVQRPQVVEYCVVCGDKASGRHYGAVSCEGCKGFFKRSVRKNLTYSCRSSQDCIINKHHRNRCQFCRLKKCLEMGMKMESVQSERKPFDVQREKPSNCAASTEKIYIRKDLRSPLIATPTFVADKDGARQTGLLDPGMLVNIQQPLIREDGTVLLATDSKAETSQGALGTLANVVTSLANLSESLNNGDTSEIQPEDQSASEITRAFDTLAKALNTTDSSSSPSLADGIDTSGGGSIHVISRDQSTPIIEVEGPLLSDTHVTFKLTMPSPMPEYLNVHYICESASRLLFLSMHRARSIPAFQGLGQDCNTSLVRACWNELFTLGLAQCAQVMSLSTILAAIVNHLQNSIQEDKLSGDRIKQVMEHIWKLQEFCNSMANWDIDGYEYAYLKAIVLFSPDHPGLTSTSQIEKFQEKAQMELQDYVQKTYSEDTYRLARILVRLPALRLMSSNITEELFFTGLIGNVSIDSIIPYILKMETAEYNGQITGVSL

T2: TR2 (Homo sapiens, UniProt P13056)
T2 sequence (P13056 1-603): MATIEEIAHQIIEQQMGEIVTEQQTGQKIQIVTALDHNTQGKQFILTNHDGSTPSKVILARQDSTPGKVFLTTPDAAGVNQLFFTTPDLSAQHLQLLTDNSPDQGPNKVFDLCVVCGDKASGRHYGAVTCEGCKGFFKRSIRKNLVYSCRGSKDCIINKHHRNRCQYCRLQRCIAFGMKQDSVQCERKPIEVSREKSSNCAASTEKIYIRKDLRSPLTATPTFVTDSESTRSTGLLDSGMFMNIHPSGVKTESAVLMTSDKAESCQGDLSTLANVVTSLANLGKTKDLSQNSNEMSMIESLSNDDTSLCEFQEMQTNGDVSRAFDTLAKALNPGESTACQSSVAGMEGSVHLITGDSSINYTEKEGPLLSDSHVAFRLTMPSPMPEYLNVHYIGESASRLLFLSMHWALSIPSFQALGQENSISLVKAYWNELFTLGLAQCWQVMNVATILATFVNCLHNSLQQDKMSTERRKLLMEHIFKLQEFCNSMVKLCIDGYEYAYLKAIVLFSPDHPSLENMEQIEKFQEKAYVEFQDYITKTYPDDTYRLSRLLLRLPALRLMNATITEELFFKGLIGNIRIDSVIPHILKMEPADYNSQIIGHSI

T3: TR4 orphan receptor (TR4), full-length (human, UniProt P49116 1-596)
T3 construct: Full-length TR4; 35S-labeled when in vitro translated, expressed from plasmids in the cell assays; also called pCMX-TR4; pCMV-TR4
T3 sequence: T1 sequence (P49116 1-615 isoform P49116-2 N175S/W419R/A428G/K503N/L504W/A613V)

B1: estrogen receptor (ER), full-length (receptor)
chain: MTMTLHTKASGMALLHQIQGNELEPLNRPQLKIPLERPLGEVYLDSSKPAVYNYPEGAAYEFNAAAAANAQVYGQTGLPYGPGSEAAAFGSNGLGGFPPLNSVSPSPLMLLHPPPQLSPFLQPHGQQVPYYLENEPSGYTVREAGPPAFYRPNSDNRRQGGRERLASTNDKGSMAMESAKETRYCAVCNDYASGYHYGVWSCEGCKAFFKRSIQGHNDYMCPATNQCTIDKNRRKSCQACRLRKCYEVGMMKGGIRKDRRGGRMLKHKRQRDDGEGRGEVGSAGDMRAANLWPSPLMIKRSKKNSLALSLTADQMVSALLDAEPPILYSEYDPTRPFSEASMMGLLTNLADRELVHMINWAKRVPGFVDLTLHDQVHLLECAWLEILMIGLVWRSMEHPVKLLFAPNLLLDRNQGKCVEGMVEIFDMLLATSSRFRMMNLQGEEFVCLKSIILLNSGVYTFLSSTLKSLEEKDHIHRVLDKITDTLIHLMAKAGLTLQQQHQRLAQLLLILSHIRHMSNKGMEHLYSMKCKNVVPLYDLLLEMLDAHRLHAPTSRGGASVEETDQSHLATAGSTSSHSLQKYYITGEAEGFPATV
notes: 35S-labeled when in vitro translated for the pull-downs; endogenous in MCF7 cells for the co-immunoprecipitation; also called ERα; pSG5-ER
B2: PR: progesterone receptor (protein)
chain: MTELKAKGPRAPHVAGGPPSPEVGSPLLCRPAAGPFPGSQTSDTLPEVSAIPISLDGLLFPRPCQGQDPSDEKTQDQQSLSDVEGAYSRAEATRGAGGSSSSPPEKDSGLLDSVLDTLLAPSGPGQSQPSPPACEVTSSWCLFGPELPEDPPAAPATQRVLSPLMSRSGCKVGDSSGTAAAHKVLPRGLSPARQLLLPASESPHWSGAPVKPSPQAAAVEVEEEDGSESEESAGPLLKGKPRALGGAAAGGGAAAVPPGAAAGGVALVPKEDSRFSAPRVALVEQDAPMAPGRSPLATTVMDFIHVPILPLNHALLAARTRQLLEDESYDGGAGAASAFAPPRSSPCASSTPVAVGDFPDCAYPPDAEPKDDAYPLYSDFQPPALKIKEEEEGAEASARSPRSYLVAGANPAAFPDFPLGPPPPLPPRATPSRPGEAAVTAAPASASVSSASSSGSTLECILYKAEGAPPQQGPFAPPPCKAPGASGCLLPRDGLPSTSASAAAAGAAPALYPALGLNGLPQLGYQAAVLKEGLPQVYPPYLNYLRPDSEASQSPQYSFESLPQKICLICGDEASGCHYGVLTCGSCKVFFKRAMEGQHNYLCAGRNDCIVDKIRRKNCPACRLRKCCQAGMVLGGRKFKKFNKVRVVRALDAVALPQPVGVPNESQALSQRFTFSPGQDIQLIPPLINLLMSIEPDVIYAGHDNTKPDTSSSLLTSLNQLGERQLLSVVKWSKSLPGFRNLHIDDQITLIQYSWMSLMVFGLGWRSYKHVSGQMLYFAPDLILNEQRMKESSFYSLCLTMWQIPQEFVKLQVSQEEFLCMKVLLLLNTIPLEGLRSQTQFEEMRSSYIRELIKAIGLRQKGVVSSSQRFYQLTKLLDNLHDLVKQLHLYCLNTFIQSRALSVEFPEMMSEVIAAQLPKILAGMVKPLLFHKK

Columns and labels:
[1] = biological target: T4, interaction between AR and TR4 (Homo sapiens, UniProt P10275, DEL79-80/DUP473-473); test: Modified mammalian one-hybrid system pSG5AR / GAL4-TR4E; type: cell-based; settings: 1 μM of anti androgen
T4 construct: A full-length AR(pSG5AR) was co-transfected with GAL4-TR4E; expressed in transfected cells; host or cells: H1299
Protocol: A full-length AR(pSG5AR) was co-transfected with GAL4-TR4E and PG5-Luc reporter in H1299 cells (pSG5AR, pSG5GR, pSG5PR, disclosed in Yeh et al., Proc Natl. Acad. Sci., 93:5517-5521 (1996), which is herein incorporated by reference at least for material related to plasmids and assays, including sequence).
Transfection was performed by a modified calcium phosphate precipitation method. The pRL-TK plasmid was co-transfected for normalization of transfection efficiency.

TR4 = biological target: T1, TR4; test: TR4-mediated transactivation reporter assay; type: cell-based; settings: H1299 cells; absence or presence of DHT
Protocol: Cells were routinely maintained in DMEM with 10% heat-inactivated fetal bovine serum. The cells were transfected using a modified calcium phosphate precipitation method, Mizokami, & Chang, J: Biol. Chem. 269,25655-25659 (1994), or SuperFect (Qiagen). To normalize the transfection efficiency, the (3-galactosidase expression ver and pRL-TK were co-transfected in CAT assay and in Dual-luciferase reporter assay system (Promega), respectively.
More specifically, 500 ng of reporter plasmids were co-transfected(DR4-CAT and CNTFR-15-LUC) with 200 ng of pCMX-TR4 and increasing amounts of pCMV-AR (200, 600, and 1,200 ng), pSG5GR (1,200 ng), or pSG5 PR (1,200 ng) using the SuperFect transfection kit (Qiagen) (PCMV AR Mowszowicz et al., (1993) Molecular Endocrinology 7:861:869). […] Similar results were obtained when the DR4-TK-CAT reporter was replaced with DR1-CNTFR-15-LUC, another TR4 response element (FIG. 3A). Young, et al., J: Biol. Chem. 272,3109-3116 (1997).
Another TR4 potential target gene, which is located in the hepatitis B virus (HBV) enhancer II region (−34 to −7) containing a classic DR1 motif. Breidbart, et al., Pediatric Res. 34,300-302 (1993), was investigated. The reporter plasmid CpFL(4)-LUC, which contains the HBV core promoter (Cp) sequence located between −34 and −7 (nucleotide coordinates 1751 and 1778 derived from the Genbank database) was shown above in FIG. 3B. The arrows indicate the DRI motif in HBV core promoter. HepG2 cells were co-transfected with 1.5 μg CpFL(4)-LUC reporter and 0.5 μg pCMX-TR4, with increasing amounts of pCMV-AR (0.5, 2.5, and 5 μg) by modified calcium phosphate precipitation method. The relative reporter gene activities were compared to the CAT activities (or luciferase activities) with vector alone. To normalize the transfection efficiency, the β-galactosidase expression vector and pRL-TK were co-transfected in the CAT assay and in the Dual-luciferase reporter assay system (Promega), respectively.

TR2 = biological target: T2, TR2; test: TR2-mediated transactivation reporter assay; type: cell-based; settings: H1299 cells; absence or presence of E2
Protocol: Transfections and chloramphenicol acetyltransferase (CAT) assays were performed as described previously. Yeh, & Chang, Proc. Natl. Acad. Sci. 93, 5517-5521 (1996). Briefly, 4×10^5 cells were plated in 60-mm dishes and cultured for 24 h, and then the medium was changed to phenol red free DMEM with 5% charcoal-stripped FCS 2 h before transfection. The cells were co-transfected with TR2 and/or ER expression plasmids with 2 μg of TR2-TK-CAT reporter or 1 μg of ERE-CAT reporter gene plasmid, as indicated in the Figures, by using the calcium phosphate precipitation method. A β-gal actosidase expression plasmid, pCMV-β-gal, was transfected in all transfections as an internal control for normalizing transfection efficiency. The total amount of DNA was adjusted up to 10.5 μg with parent vectors, pSG5 or pCMV in each transcriptional activity assay. […] The cells were then harvested and whole cell extracts were used for CAT assay. The CAT activity was quantitated by Phosphorlmager (Molecular Dynamics). Data are presented as means±S.D. of at least three independent experiments.
The CAT reporter assay was used to study the potential consequence of the formation of heterodimers between the TR2 and ER. […] More specifically, H1299 cells were transiently cotransfected with 2 μg of DR4-TK-CAT reporter plasmid and 3 μg of TR2 expression plasmid together with increasing amounts of the ER expression vector. […] Cells were also transfected with internal control reporter plasmid, pCMV-β-gal, as an internal control for transfection efficiency. Luciferase activity was then analyzed following manufacturer's instructions (Promega). […] Similar results were obtained when the DR4-TK-CAT reporter with DR1-HBV-LUC were replaced, another TR2 response element (FIG. 7C).
This conclusion was further confirmed by using the chimera receptor, TR2-androgen receptor (AR) ARp-TR2, which was generated by swapping TR2 proximal box (P-box) with that found in the AR. […] Luciferase activity was then analyzed following manufacturer's instructions (Promega). […]

[2] = biological target: T3, TR4 orphan receptor (TR4), full-length; test: Table 4, summary of interactions tested; assay not given

T4 sequence (P10275 with tags, fused parts or gaps DEL79-80/DUP473-473): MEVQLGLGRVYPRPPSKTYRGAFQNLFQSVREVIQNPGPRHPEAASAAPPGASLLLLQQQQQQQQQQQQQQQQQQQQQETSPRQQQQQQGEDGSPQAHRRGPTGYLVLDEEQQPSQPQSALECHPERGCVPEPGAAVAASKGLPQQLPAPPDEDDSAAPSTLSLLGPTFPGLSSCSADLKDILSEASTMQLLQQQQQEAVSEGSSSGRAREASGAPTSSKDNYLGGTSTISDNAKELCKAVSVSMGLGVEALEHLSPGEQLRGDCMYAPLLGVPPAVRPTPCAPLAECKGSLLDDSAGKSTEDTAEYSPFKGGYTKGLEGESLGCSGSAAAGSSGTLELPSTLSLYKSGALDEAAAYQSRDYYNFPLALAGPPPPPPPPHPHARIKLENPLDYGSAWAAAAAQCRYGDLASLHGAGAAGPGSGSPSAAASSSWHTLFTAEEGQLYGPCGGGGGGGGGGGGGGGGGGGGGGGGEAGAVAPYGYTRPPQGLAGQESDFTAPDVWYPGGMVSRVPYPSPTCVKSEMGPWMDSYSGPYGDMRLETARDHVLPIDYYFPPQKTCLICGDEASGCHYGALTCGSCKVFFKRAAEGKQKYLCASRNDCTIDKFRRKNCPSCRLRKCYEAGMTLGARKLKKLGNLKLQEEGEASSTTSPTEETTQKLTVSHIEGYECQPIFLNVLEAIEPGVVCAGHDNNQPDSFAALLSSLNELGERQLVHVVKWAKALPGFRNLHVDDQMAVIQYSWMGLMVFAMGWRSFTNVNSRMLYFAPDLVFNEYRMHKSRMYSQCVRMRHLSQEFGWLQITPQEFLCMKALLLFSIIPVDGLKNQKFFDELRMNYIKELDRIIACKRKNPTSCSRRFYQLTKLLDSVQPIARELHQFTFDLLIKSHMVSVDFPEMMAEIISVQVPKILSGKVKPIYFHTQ

Molecule	Effect on DHT-enhanced interaction between AR and TR4 [1]	CAT activity induced by pCMXTR4 (DR4-TK-CAT; similar with DR1-CNTFR-I5-LUC) (TR4)	CAT activity induced by pCMV-TR2 (DR4-TK-CAT; similar with DR1-HBV-LUC) (TR2)	binding result [2]
CC1(C)C(=O)N(c2ccc(C#N)c(C(F)(F)F)c2)C(=O)N1CCCCO [RU58841]	abolish			
CC(C)(O)C(=O)Nc1ccc([N+](=O)[O-])c(C(F)(F)F)c1 [hydroxyflutamide]	abolish			
GR: glucocorticoid receptor		no suppressive effects	no suppressive effect	
B1				binds
B2		no suppressive effects	no suppressive effect	
